Results published in ChEMBL document CHEMBL5620400, “Design, synthesis, antiviral evaluation, and In silico studies of acrylamides targeting nsP2 from Chikungunya virus” (Eur J Med Chem, 2023).
The source made the active and inactive calls. No cut-off for these calls is given here.

Tests used:
Sindbis virus = assay: Antiviral activity against SINV infected african green monkey Vero cells assessed as inhibition of virus induced cytopathic effect at 100 uM measured after 48 hrs by microscopic imaging analysis; format: functional, organism-based
[1] = system: COc1ccccc1/C=C/C(=O)Nc1ccccc1; assay: (§1) Binding affinity to CHIKV nsP2 assessed as Km by measuring fluorescence by multimode microplate reader; conditions: Chikungunya virus
[2] = system: O=C(/C=C/c1ccc(Br)cc1)Nc1ccccc1; assay: as §1; conditions: Chikungunya virus
[3] = system: O=C(/C=C/c1ccc(C(F)(F)F)cc1)Nc1ccccc1; assay: as §1; conditions: Chikungunya virus
[4] = system: O=C(/C=C/c1ccc(Cl)cc1Cl)Nc1ccccc1; assay: as §1; conditions: Chikungunya virus
[5] = system: COc1ccccc1/C=C/C(=O)Nc1ccccc1; assay: (§2) Binding affinity to CHIKV nsP2 assessed as Vmax (at I = 0) by measuring fluorescence by Lineweaver-Burk plot; conditions: Chikungunya virus
[6] = system: O=C(/C=C/c1ccc(Br)cc1)Nc1ccccc1; assay: as §2; conditions: Chikungunya virus
[7] = system: O=C(/C=C/c1ccc(C(F)(F)F)cc1)Nc1ccccc1; assay: as §2; conditions: Chikungunya virus
[8] = system: O=C(/C=C/c1ccc(Cl)cc1Cl)Nc1ccccc1; assay: as §2; conditions: Chikungunya virus
[9] = system: COc1ccccc1/C=C/C(=O)Nc1ccccc1; assay: (§3) Binding affinity to CHIKV nsP2 assessed as Vmax (at tested concentration) by measuring fluorescence by Lineweaver-Burk plot; conditions: Chikungunya virus
[10] = system: O=C(/C=C/c1ccc(Br)cc1)Nc1ccccc1; assay: as §3; conditions: Chikungunya virus
[11] = system: O=C(/C=C/c1ccc(C(F)(F)F)cc1)Nc1ccccc1; assay: as §3; conditions: Chikungunya virus
[12] = system: O=C(/C=C/c1ccc(Cl)cc1Cl)Nc1ccccc1; assay: as §3; conditions: Chikungunya virus

COc1ccccc1/C=C/C(=O)Nc1ccccc1
Activity (Sindbis virus): Active

O=C(/C=C/c1ccc(Br)cc1)Nc1ccccc1
Activity (Sindbis virus): Active

O=C(/C=C/c1ccc(C(F)(F)F)cc1)Nc1ccccc1
Activity (Sindbis virus): Active

Polyprotein P1234 (Chikungunya virus (strain S27-African prototype) (CHIKV)), Q8JUX6
Km [1]: 4.9 µM
Km [2]: 5.4 µM
Km [3]: 9.7 µM
Km [4]: 3.5 µM
Vmax [5]: 0.76
Vmax [6]: 0.73
Vmax [7]: 1.57
Vmax [8]: 0.84
Vmax [9]: 0.71
Vmax [10]: 0.87
Vmax [11]: 1.58
Vmax [12]: 0.83

O=C(/C=C/c1ccc(Cl)cc1Cl)Nc1ccccc1
Activity (Sindbis virus): Active
